Patent publication US6593099B2, “Regulation of human S-acyl fatty acid synthase thioesterase-like enzyme” (Bayer Aktiengesellschaft, priority 2000, dated 2003)
Values belong to the compound of their own block, whether it stands above or below them.

Columns and labels:
[1] = target: T1, S-acyl fatty acid synthase thioesterase-like enzyme short (long) polypeptide (coolEST49) (Homo sapiens, UniProt Q9NV23); assay: Discontinuous DTNB thioesterase activity / inhibition assay with palmitoyl CoA; format: biochemical; conditions: 1 mM AEBSF
T1 construct: 6xHis (N); made in house; host or cells: E. coli BL21 (DE3), pET-28a
Method: Activity of both protein peaks was assayed using an optimized discontinuous assay format. Reaction mixture was 100 mM Tris (pH 8.0), 100 nM coolEST49,±0.1 mM palmitoyl CoA in a volume of 100 μL. The mixture was allowed to incubate at room temperature for 3 hours. After incubation, 150 μL of developer mixture (0.42 mM DTNB in 100 mM Tris) was added, and the absorbance at 412 nm was measured using a 96-well plate reader, using samples without palmitoyl CoA as blanks.
Activity of S-acyl fatty acid synthase thioesterase-like enzyme short (long) polypeptide from the anion exchange column was assayed and compared to that of the eluate from the Ni-NTA column step. An attempt was also made at inhibiting S-acyl fatty acid synthase thioesterase-like enzyme short (long) polypeptide with either DEPC (7 mM) or AEBSF (1 mM).

[2] = target: T2, S-acyl fatty acid synthase thioesterase-like enzyme short (long) polypeptide (Homo sapiens, UniProt Q9NV23); assay: Continuous DTNB assay, kinetics and substrate searching; conditions: Batch 1 from baculovirus
Method: (§1) A continuous assay format was used to get kinetic information on this preparation of S-acyl fatty acid synthase thioesterase-like enzyme short (long) polypeptide, using the same conditions as with the discontinuous assay, except with this format, developer was added to enzyme until a flat signal was achieved, then the reaction was started by the addition of substrate. Along with palmitoyl CoA, the other substrates assayed were acetyl CoA, octanoyl CoA, decanoyl CoA, and lauroyl CoA.
(§2) S-acyl fatty acid synthase thioesterase-like enzyme short (long) polypeptide activity was assayed in the continuous format as described.

[3] = target: T2, S-acyl fatty acid synthase thioesterase-like enzyme short (long) polypeptide; assay: Comparison of continuous and discontinuous assay format (pre-incubation with DTNB); format: biochemical; set-up: His6; made in house; host or cells: Sf9 insect cells, baculovirus; conditions: DTNB at the concentrations used in the continuous assay format
Method: S-acyl fatty acid synthase thioesterase-like enzyme short (long) polypeptide was incubated in the presence or absence of DTNB, and the A412 was monitored until a baseline was achieved. Substrate (palmitoyl CoA) was then added to each incubation and was incubated for an additional 50 minutes. After this period of time, A412 of each sample was compared to determine whether the pre-incubation of enzyme with DTNB inactivates the enzyme. Enzyme without substrate was used as a blank for the discontinuous assay.

[4] = test system: CCCCCCCC(=O)SCCNC(=O)CCNC(=O)[C@H](O)C(C)(C)COP(=O)(O)OP(=O)(O)OC[C@H]1O[C@@H](n2cnc3c(N)ncnc32)[C@H](O)[C@@H]1OP(=O)(O)O; assay: purified protein, by the assay type; conditions: other: Batch 1 from baculovirus, continuous assay
Method: as §1, §2

[5] = test system: CCCCCCCCCC(=O)SCCNC(=O)CCNC(=O)[C@H](O)C(C)(C)COP(=O)(O)OP(=O)(O)OC[C@H]1O[C@@H](n2cnc3c(N)ncnc32)[C@H](O)[C@@H]1OP(=O)(O)O; assay: purified protein, by the assay type; conditions: other: Batch 1 from baculovirus, continuous assay
Method: as §1, §2

[6] = test system: CCCCCCCCCCCC(=O)SCCNC(=O)CCNC(=O)[C@H](O)C(C)(C)COP(=O)(O)OP(=O)(O)OC[C@H]1O[C@@H](n2cnc3c(N)ncnc32)[C@H](O)[C@@H]1OP(=O)(O)O; assay: purified protein, by the assay type; conditions: other: Batch 1 from baculovirus, continuous assay
Method: as §1, §2

[7] = test system: CCCCCCCCCCCCCCCC(=O)SCCNC(=O)CCNC(=O)[C@H](O)C(C)(C)COP(=O)(O)OP(=O)(O)OC[C@H]1O[C@@H](n2cnc3c(N)ncnc32)[C@H](O)[C@@H]1OP(=O)(O)O; assay: purified protein, by the assay type; conditions: continuous assay
Method: as §1, §2

[8] = other: Batch 1 from baculovirus

T2 sequence (Q9NV23 whole entry): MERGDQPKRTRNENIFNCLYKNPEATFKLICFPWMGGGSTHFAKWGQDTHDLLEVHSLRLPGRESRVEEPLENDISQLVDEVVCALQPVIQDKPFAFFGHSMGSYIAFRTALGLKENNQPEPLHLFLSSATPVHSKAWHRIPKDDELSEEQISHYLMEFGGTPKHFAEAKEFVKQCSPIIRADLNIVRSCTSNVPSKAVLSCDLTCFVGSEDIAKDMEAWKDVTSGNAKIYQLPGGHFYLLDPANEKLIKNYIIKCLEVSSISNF
T1 sequence (Q9NV23 whole entry): as above

Compound: Cl.NCCc1ccc(S(=O)(=O)F)cc1 [AEBSF, 4-(2-Aminoethyl)Benzenesulfonyl Fluoride Hydrochloride]
Inhibition of S-acyl fatty acid synthase thioesterase-like enzyme short (long) polypeptide activity [1]: inhibited

Km [2]: immeasurable | kcat ([2]; footnote: 1.0 = 23 mOD/min): immeasurable
Compound: CC(=O)SCCNC(=O)CCNC(=O)[C@H](O)C(C)(C)COP(=O)(O)OP(=O)(O)OC[C@H]1O[C@@H](n2cnc3c(N)ncnc32)[C@H](O)[C@@H]1OP(=O)(O)O [Acetyl CoA]

Inactivation of the enzyme [3]: 60%
Compound: O=C(O)c1cc(SSc2ccc([N+](=O)[O-])c(C(=O)O)c2)ccc1[N+](=O)[O-] [DTNB, 5,5′-dithiobis(2-nitrobenzoic acid)]

Compound: S-acyl fatty acid synthase thioesterase-like enzyme short (long) polypeptide (Homo sapiens)
Km [4]: 12,400 μM | kcat [4]: 0.115 s⁻¹ | Km [5]: 856.1 µM | kcat [5]: 0.0467 s⁻¹ | Km [6]: 76.7 µM | kcat [6]: 0.0167 s⁻¹ | Km [7, 8]: 5.1 µM | kcat [7, 8]: 0.0167 s⁻¹ | Km ([7]; other: Batch 2 from baculovirus): 2.4 µM
